US20210285960A1

Assays:
[1] = target: PL555-PA488 dual-labeled test antibody; assay: cell-based or functional assay
[2] = target: Fab488-Fc555 dual-labeled test antibody; assay: cell-based or functional assay

CA125 TIPS factor (MUC16/CA125), Q8WXI7 1-14451
increase in 570 nm emission signal (FRET, 470 nm excitation) [1]: 18% | increase in 570 nm emission signal (FRET, 470 nm excitation) [2]: 35%
